Our source for the IC50 values is US20140087995A1 (published 2014).

B1: N^ε1-[(4S)-4-carboxy-4-[[(4S)-4-carboxy-4-(19-carboxynonadecanoylamino)butanoyl]amino]butanoyl]-[Glu14,Arg17,Pro21,Pro27,Arg34]-h-amylin (peptide)
peptide: K([γGlu-γGlu-C20 diacid])CNTATCATQRLAEFLRHSSPNFGAIPSSTNVGRNTY-NH2
modifications: disulfide 2-7; N-terminus assumed
SMILES: CC[C@H](C)[C@H](NC(=O)[C@H](C)NC(=O)CNC(=O)[C@H](Cc1ccccc1)NC(=O)[C@H](CC(N)=O)NC(=O)[C@@H]1CCCN1C(=O)[C@H](CO)NC(=O)[C@H](CO)NC(=O)[C@H](Cc1c[nH]cn1)NC(=O)[C@H](CCCNC(=N)N)NC(=O)[C@H](CC(C)C)NC(=O)[C@H](Cc1ccccc1)NC(=O)[C@H](CCC(=O)O)NC(=O)[C@H](C)NC(=O)[C@H](CC(C)C)NC(=O)[C@H](CCCNC(=N)N)NC(=O)[C@H](CCC(N)=O)NC(=O)[C@@H](NC(=O)[C@H](C)NC(=O)[C@@H]1CSSC[C@H](NC(=O)[C@@H](N)CCCCNC(=O)CC[C@H](NC(=O)CC[C@H](NC(=O)CCCCCCCCCCCCCCCCCCC(=O)O)C(=O)O)C(=O)O)C(=O)N[C@@H](CC(N)=O)C(=O)N[C@@H]([C@@H](C)O)C(=O)N[C@@H](C)C(=O)N[C@@H]([C@@H](C)O)C(=O)N1)[C@@H](C)O)C(=O)N1CCC[C@H]1C(=O)N[C@@H](CO)C(=O)N[C@@H](CO)C(=O)N[C@H](C(=O)N[C@@H](CC(N)=O)C(=O)N[C@H](C(=O)NCC(=O)N[C@@H](CCCNC(=N)N)C(=O)N[C@@H](CC(N)=O)C(=O)N[C@H](C(=O)N[C@@H](Cc1ccc(O)cc1)C(N)=O)[C@@H](C)O)C(C)C)[C@@H](C)O
notes: also called 14E, 17R, 21P, 27P, 34R
B2: N^ε1-[(4S)-4-carboxy-4-[[(4S)-4-carboxy-4-(19-carboxynonadecanoylamino)butanoyl]amino]butanoyl]-[Glu14,Arg17,Pro21,Pro31,Pro34,Glu35]-h-amylin (peptide)
peptide: K([γGlu-γGlu-C20 diacid])CNTATCATQRLAEFLRHSSPNFGAILSSTPVGPETY-NH2
modifications: disulfide 2-7 (inferred)
notes: also called 14E, 17R, 21P, 31P, 34P, 35E
B3: N^ε1-[(4S)-4-carboxy-4-[[(4S)-4-carboxy-4-(19-carboxynonadecanoylamino)butanoyl]amino]butanoyl]-[Glu14,Arg17,Pro21,Pro27,His34]-h-amylin (peptide)
peptide: K([γGlu-γGlu-C20 diacid])CNTATCATQRLAEFLRHSSPNFGAIPSSTNVGHNTY-NH2
modifications: disulfide 2-7; N-terminus assumed
SMILES: CC[C@H](C)[C@H](NC(=O)[C@H](C)NC(=O)CNC(=O)[C@H](Cc1ccccc1)NC(=O)[C@H](CC(N)=O)NC(=O)[C@@H]1CCCN1C(=O)[C@H](CO)NC(=O)[C@H](CO)NC(=O)[C@H](Cc1c[nH]cn1)NC(=O)[C@H](CCCNC(=N)N)NC(=O)[C@H](CC(C)C)NC(=O)[C@H](Cc1ccccc1)NC(=O)[C@H](CCC(=O)O)NC(=O)[C@H](C)NC(=O)[C@H](CC(C)C)NC(=O)[C@H](CCCNC(=N)N)NC(=O)[C@H](CCC(N)=O)NC(=O)[C@@H](NC(=O)[C@H](C)NC(=O)[C@@H]1CSSC[C@H](NC(=O)[C@@H](N)CCCCNC(=O)CC[C@H](NC(=O)CC[C@H](NC(=O)CCCCCCCCCCCCCCCCCCC(=O)O)C(=O)O)C(=O)O)C(=O)N[C@@H](CC(N)=O)C(=O)N[C@@H]([C@@H](C)O)C(=O)N[C@@H](C)C(=O)N[C@@H]([C@@H](C)O)C(=O)N1)[C@@H](C)O)C(=O)N1CCC[C@H]1C(=O)N[C@@H](CO)C(=O)N[C@@H](CO)C(=O)N[C@H](C(=O)N[C@@H](CC(N)=O)C(=O)N[C@H](C(=O)NCC(=O)N[C@@H](Cc1c[nH]cn1)C(=O)N[C@@H](CC(N)=O)C(=O)N[C@H](C(=O)N[C@@H](Cc1ccc(O)cc1)C(N)=O)[C@@H](C)O)C(C)C)[C@@H](C)O
notes: also called 14E, 17R, 21P, 27P, 34H
B4: N^ε1-[(4S)-4-carboxy-4-[[(4S)-4-carboxy-4-(19-carboxynonadecanoylamino)butanoyl]amino]butanoyl]-[Glu14,Arg17,Pro21,Pro27,Pro34,Arg35]-h-amylin (peptide)
peptide: K([γGlu-γGlu-C20 diacid])CNTATCATQRLAEFLRHSSPNFGAIPSSTNVGPRTY-NH2
modifications: disulfide 2-7; N-terminus assumed
SMILES: CC[C@H](C)[C@H](NC(=O)[C@H](C)NC(=O)CNC(=O)[C@H](Cc1ccccc1)NC(=O)[C@H](CC(N)=O)NC(=O)[C@@H]1CCCN1C(=O)[C@H](CO)NC(=O)[C@H](CO)NC(=O)[C@H](Cc1c[nH]cn1)NC(=O)[C@H](CCCNC(=N)N)NC(=O)[C@H](CC(C)C)NC(=O)[C@H](Cc1ccccc1)NC(=O)[C@H](CCC(=O)O)NC(=O)[C@H](C)NC(=O)[C@H](CC(C)C)NC(=O)[C@H](CCCNC(=N)N)NC(=O)[C@H](CCC(N)=O)NC(=O)[C@@H](NC(=O)[C@H](C)NC(=O)[C@@H]1CSSC[C@H](NC(=O)[C@@H](N)CCCCNC(=O)CC[C@H](NC(=O)CC[C@H](NC(=O)CCCCCCCCCCCCCCCCCCC(=O)O)C(=O)O)C(=O)O)C(=O)N[C@@H](CC(N)=O)C(=O)N[C@@H]([C@@H](C)O)C(=O)N[C@@H](C)C(=O)N[C@@H]([C@@H](C)O)C(=O)N1)[C@@H](C)O)C(=O)N1CCC[C@H]1C(=O)N[C@@H](CO)C(=O)N[C@@H](CO)C(=O)N[C@H](C(=O)N[C@@H](CC(N)=O)C(=O)N[C@H](C(=O)NCC(=O)N1CCC[C@H]1C(=O)N[C@@H](CCCNC(=N)N)C(=O)N[C@H](C(=O)N[C@@H](Cc1ccc(O)cc1)C(N)=O)[C@@H](C)O)C(C)C)[C@@H](C)O
notes: also called 14E, 17R, 21P, 27P, 34P, 35R
B5: N^ε1-[(4S)-4-carboxy-4-[[(4S)-4-carboxy-4-(19-carboxynonadecanoylamino)butanoyl]amino]butanoyl]-[Glu14,Arg17,Pro21,Pro27,Pro37]-h-amylin (peptide)
peptide: K([γGlu-γGlu-C20 diacid])CNTATCATQRLAEFLRHSSPNFGAIPSSTNVGSNTP-NH2
modifications: disulfide 2-7; N-terminus assumed
SMILES: CC[C@H](C)[C@H](NC(=O)[C@H](C)NC(=O)CNC(=O)[C@H](Cc1ccccc1)NC(=O)[C@H](CC(N)=O)NC(=O)[C@@H]1CCCN1C(=O)[C@H](CO)NC(=O)[C@H](CO)NC(=O)[C@H](Cc1c[nH]cn1)NC(=O)[C@H](CCCNC(=N)N)NC(=O)[C@H](CC(C)C)NC(=O)[C@H](Cc1ccccc1)NC(=O)[C@H](CCC(=O)O)NC(=O)[C@H](C)NC(=O)[C@H](CC(C)C)NC(=O)[C@H](CCCNC(=N)N)NC(=O)[C@H](CCC(N)=O)NC(=O)[C@@H](NC(=O)[C@H](C)NC(=O)[C@@H]1CSSC[C@H](NC(=O)[C@@H](N)CCCCNC(=O)CC[C@H](NC(=O)CC[C@H](NC(=O)CCCCCCCCCCCCCCCCCCC(=O)O)C(=O)O)C(=O)O)C(=O)N[C@@H](CC(N)=O)C(=O)N[C@@H]([C@@H](C)O)C(=O)N[C@@H](C)C(=O)N[C@@H]([C@@H](C)O)C(=O)N1)[C@@H](C)O)C(=O)N1CCC[C@H]1C(=O)N[C@@H](CO)C(=O)N[C@@H](CO)C(=O)N[C@H](C(=O)N[C@@H](CC(N)=O)C(=O)N[C@H](C(=O)NCC(=O)N[C@@H](CO)C(=O)N[C@@H](CC(N)=O)C(=O)N[C@H](C(=O)N1CCC[C@H]1C(N)=O)[C@@H](C)O)C(C)C)[C@@H](C)O
notes: also called 14E, 17R, 21P, 27P, 37P
B6: N^ε1-[(4S)-4-carboxy-4-[[(4S)-4-carboxy-4-(19-carboxynonadecanoylamino)butanoyl]amino]butanoyl]-[Glu14,Arg17,Pro21,Pro27,His34,Glu35]-h-amylin (peptide)
peptide: K([γGlu-γGlu-C20 diacid])CNTATCATQRLAEFLRHSSPNFGAIPSSTNVGHETY-NH2
modifications: disulfide 2-7; N-terminus assumed
SMILES: CC[C@H](C)[C@H](NC(=O)[C@H](C)NC(=O)CNC(=O)[C@H](Cc1ccccc1)NC(=O)[C@H](CC(N)=O)NC(=O)[C@@H]1CCCN1C(=O)[C@H](CO)NC(=O)[C@H](CO)NC(=O)[C@H](Cc1c[nH]cn1)NC(=O)[C@H](CCCNC(=N)N)NC(=O)[C@H](CC(C)C)NC(=O)[C@H](Cc1ccccc1)NC(=O)[C@H](CCC(=O)O)NC(=O)[C@H](C)NC(=O)[C@H](CC(C)C)NC(=O)[C@H](CCCNC(=N)N)NC(=O)[C@H](CCC(N)=O)NC(=O)[C@@H](NC(=O)[C@H](C)NC(=O)[C@@H]1CSSC[C@H](NC(=O)[C@@H](N)CCCCNC(=O)CC[C@H](NC(=O)CC[C@H](NC(=O)CCCCCCCCCCCCCCCCCCC(=O)O)C(=O)O)C(=O)O)C(=O)N[C@@H](CC(N)=O)C(=O)N[C@@H]([C@@H](C)O)C(=O)N[C@@H](C)C(=O)N[C@@H]([C@@H](C)O)C(=O)N1)[C@@H](C)O)C(=O)N1CCC[C@H]1C(=O)N[C@@H](CO)C(=O)N[C@@H](CO)C(=O)N[C@H](C(=O)N[C@@H](CC(N)=O)C(=O)N[C@H](C(=O)NCC(=O)N[C@@H](Cc1c[nH]cn1)C(=O)N[C@@H](CCC(=O)O)C(=O)N[C@H](C(=O)N[C@@H](Cc1ccc(O)cc1)C(N)=O)[C@@H](C)O)C(C)C)[C@@H](C)O
notes: also called 14E, 17R, 21P, 27P, 34H, 35E
B7: N^ε1-[(4S)-4-carboxy-4-[[(4S)-4-carboxy-4-(19-carboxynonadecanoylamino)butanoyl]amino]butanoyl]-[Glu14,Arg17,Pro21,Pro27,Pro34,Glu35]-h-amylin (peptide)
peptide: K([γGlu-γGlu-C20 diacid])CNTATCATQRLAEFLRHSSPNFGAIPSSTNVGPETY-NH2
modifications: disulfide 2-7; N-terminus assumed
SMILES: CC[C@H](C)[C@H](NC(=O)[C@H](C)NC(=O)CNC(=O)[C@H](Cc1ccccc1)NC(=O)[C@H](CC(N)=O)NC(=O)[C@@H]1CCCN1C(=O)[C@H](CO)NC(=O)[C@H](CO)NC(=O)[C@H](Cc1c[nH]cn1)NC(=O)[C@H](CCCNC(=N)N)NC(=O)[C@H](CC(C)C)NC(=O)[C@H](Cc1ccccc1)NC(=O)[C@H](CCC(=O)O)NC(=O)[C@H](C)NC(=O)[C@H](CC(C)C)NC(=O)[C@H](CCCNC(=N)N)NC(=O)[C@H](CCC(N)=O)NC(=O)[C@@H](NC(=O)[C@H](C)NC(=O)[C@@H]1CSSC[C@H](NC(=O)[C@@H](N)CCCCNC(=O)CC[C@H](NC(=O)CC[C@H](NC(=O)CCCCCCCCCCCCCCCCCCC(=O)O)C(=O)O)C(=O)O)C(=O)N[C@@H](CC(N)=O)C(=O)N[C@@H]([C@@H](C)O)C(=O)N[C@@H](C)C(=O)N[C@@H]([C@@H](C)O)C(=O)N1)[C@@H](C)O)C(=O)N1CCC[C@H]1C(=O)N[C@@H](CO)C(=O)N[C@@H](CO)C(=O)N[C@H](C(=O)N[C@@H](CC(N)=O)C(=O)N[C@H](C(=O)NCC(=O)N1CCC[C@H]1C(=O)N[C@@H](CCC(=O)O)C(=O)N[C@H](C(=O)N[C@@H](Cc1ccc(O)cc1)C(N)=O)[C@@H](C)O)C(C)C)[C@@H](C)O
notes: also called 14E, 17R, 21P, 27P, 34P, 35E

Numbered stars: 1 amine (or outer) side, 2 acyl side, 3 side chain; on linkers, the order of the positions; unused ones are H or OH. Bridge positions count the residues as written; N and C are the ends. Side chains are listed from the residue outwards. Ends that are not written are not given here. * marks the point of attachment. C20 diacid = O=C(O)CCCCCCCCCCCCCCCCCCC(=O)*; γGlu = O=C(O)[C@H](CCC(=O)[*:2])N[*:1]

The assay has as its target T1, human amylin receptor (human, UniProt P30988 25-474; O60896 24-148, limits assumed).
T1 construct: whole, on cells; Calcitonin receptor plus RAMP-3 gives the amylin 3(a) receptor; membranes of Amylin 3(a)/CRE-luc cells were used; also called hAmylin-R; hAmylinR
T1 sequence (looked up) 1: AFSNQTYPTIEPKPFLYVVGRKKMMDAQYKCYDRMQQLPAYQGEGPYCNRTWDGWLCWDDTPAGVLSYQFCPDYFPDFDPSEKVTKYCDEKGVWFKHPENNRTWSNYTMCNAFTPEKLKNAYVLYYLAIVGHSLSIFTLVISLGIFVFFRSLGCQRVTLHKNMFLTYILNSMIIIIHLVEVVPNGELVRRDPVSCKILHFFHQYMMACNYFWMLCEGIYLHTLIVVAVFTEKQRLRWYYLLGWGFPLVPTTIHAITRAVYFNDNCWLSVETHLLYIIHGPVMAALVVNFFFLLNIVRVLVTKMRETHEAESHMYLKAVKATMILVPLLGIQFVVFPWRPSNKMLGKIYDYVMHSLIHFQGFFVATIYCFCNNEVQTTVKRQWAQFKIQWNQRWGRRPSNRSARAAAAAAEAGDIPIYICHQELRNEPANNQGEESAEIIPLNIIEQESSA
T1 sequence (looked up) 2: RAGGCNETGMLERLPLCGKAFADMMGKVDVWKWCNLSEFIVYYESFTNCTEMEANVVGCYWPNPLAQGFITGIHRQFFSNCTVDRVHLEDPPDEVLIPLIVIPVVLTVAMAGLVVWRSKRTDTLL
Nature of the assay: SPA competition binding, displacement of 125I-rat amylin from membranes with human amylin 3(a) receptor (Assay V). A digest of the protocol: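 Cell membranes were prepared by homogenisation in Na-HEPES/EDTA buffer, pH 7.4, and stored at −80° C. They were then coupled to SPA beads at 35 ng/μL final and exposed to compounds in assay buffer containing CaCl2, MgCl₂, OA and Tween20. After 120 min at 25° C, plates were counted and IC₅₀ derived.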
Molecule B1 yielded an IC50 of 0.75 nM.

Consider B2, for which the IC50 came out at 0.069 nM.

For the molecule B3, the IC50 is 0.633 nM.

Turning to B4, the IC50 came out at 0.326 nM.

B5 showed an IC50 of 0.264 nM.

B6 gave an IC50 of 0.525 nM.

In the case of B7, the IC50 is 0.121 nM.

Usually IC50 stands for the midpoint of a concentration-inhibition curve. A lower IC50 goes with inhibition by little substance.
